Results as given in patent US20230038638A1, “COMPLEMENT FACTOR I-RELATED COMPOSITIONS AND METHODS” (published 2023).
Changes are numbered by the printed parent chain.

Key:
[1] = target: T1, human C4b (human) (UniProt P0C0L4)
T1 sequence: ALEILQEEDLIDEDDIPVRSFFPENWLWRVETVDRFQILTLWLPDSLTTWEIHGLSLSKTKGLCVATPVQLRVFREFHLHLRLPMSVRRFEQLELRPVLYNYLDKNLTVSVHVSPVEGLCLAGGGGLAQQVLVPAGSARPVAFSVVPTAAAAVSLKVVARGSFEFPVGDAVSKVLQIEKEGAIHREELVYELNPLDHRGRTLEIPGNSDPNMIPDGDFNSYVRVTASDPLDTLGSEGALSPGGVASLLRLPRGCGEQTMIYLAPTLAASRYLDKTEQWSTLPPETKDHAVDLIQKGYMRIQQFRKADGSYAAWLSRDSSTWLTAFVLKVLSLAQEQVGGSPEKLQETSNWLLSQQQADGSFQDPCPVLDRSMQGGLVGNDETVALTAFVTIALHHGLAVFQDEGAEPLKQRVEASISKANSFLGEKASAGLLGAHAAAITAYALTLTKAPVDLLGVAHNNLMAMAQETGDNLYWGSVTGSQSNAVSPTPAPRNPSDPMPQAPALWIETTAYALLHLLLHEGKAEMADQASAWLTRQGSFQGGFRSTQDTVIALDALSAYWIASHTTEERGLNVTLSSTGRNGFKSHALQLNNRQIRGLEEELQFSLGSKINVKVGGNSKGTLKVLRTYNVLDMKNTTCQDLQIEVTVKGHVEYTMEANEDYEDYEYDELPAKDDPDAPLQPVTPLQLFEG

[2] = target: soluble human C3b (human) (UniProt P01024)
[3] = target: T2, human C4b (human) (UniProt P0C0L5)
T2 sequence: T1 sequence with A151T, D317G, P364L, C365S, L368I, D369H, N420S, V451A, L454R, S530A

WT; GGSSGG (SEQ ID NO: 6); CCP_2-4 (enzyme), sequence (chain): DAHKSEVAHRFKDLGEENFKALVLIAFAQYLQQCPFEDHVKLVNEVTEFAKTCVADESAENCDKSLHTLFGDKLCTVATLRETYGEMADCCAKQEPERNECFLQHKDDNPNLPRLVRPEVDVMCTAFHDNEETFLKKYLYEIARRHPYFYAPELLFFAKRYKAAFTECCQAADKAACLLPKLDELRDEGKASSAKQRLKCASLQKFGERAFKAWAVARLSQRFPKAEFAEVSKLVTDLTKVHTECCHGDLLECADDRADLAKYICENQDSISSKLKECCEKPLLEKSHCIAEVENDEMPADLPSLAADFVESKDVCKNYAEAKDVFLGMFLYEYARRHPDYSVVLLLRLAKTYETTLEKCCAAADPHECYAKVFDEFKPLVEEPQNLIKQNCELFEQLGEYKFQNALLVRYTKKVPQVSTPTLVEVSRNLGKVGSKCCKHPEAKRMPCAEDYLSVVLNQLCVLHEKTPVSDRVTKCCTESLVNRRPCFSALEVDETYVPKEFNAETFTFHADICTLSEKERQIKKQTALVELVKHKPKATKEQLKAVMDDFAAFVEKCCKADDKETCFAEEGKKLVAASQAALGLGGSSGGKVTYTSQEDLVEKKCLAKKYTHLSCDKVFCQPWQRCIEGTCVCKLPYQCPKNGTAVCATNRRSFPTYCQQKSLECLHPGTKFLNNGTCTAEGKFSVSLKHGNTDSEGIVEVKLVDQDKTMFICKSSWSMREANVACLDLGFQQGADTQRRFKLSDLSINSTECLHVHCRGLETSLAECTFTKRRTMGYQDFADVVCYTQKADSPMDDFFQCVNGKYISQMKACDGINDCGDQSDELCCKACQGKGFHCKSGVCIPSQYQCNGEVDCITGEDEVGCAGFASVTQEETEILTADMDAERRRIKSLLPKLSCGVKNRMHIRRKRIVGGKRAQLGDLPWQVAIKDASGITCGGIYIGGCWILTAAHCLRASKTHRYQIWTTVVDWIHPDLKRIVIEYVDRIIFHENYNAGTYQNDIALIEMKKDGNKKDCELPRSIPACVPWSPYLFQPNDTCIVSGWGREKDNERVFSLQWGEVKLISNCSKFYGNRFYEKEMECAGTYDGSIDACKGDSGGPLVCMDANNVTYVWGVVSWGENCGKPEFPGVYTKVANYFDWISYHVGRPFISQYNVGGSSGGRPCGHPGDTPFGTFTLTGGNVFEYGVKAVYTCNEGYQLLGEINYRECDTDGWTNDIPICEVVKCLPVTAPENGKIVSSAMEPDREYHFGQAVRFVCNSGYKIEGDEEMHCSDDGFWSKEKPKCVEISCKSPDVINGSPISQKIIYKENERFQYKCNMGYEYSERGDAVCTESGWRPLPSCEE
Δ(K1-P305); GGSSGG (SEQ ID NO: 6); fH_CCP1-4 (enzyme), sequence (chain): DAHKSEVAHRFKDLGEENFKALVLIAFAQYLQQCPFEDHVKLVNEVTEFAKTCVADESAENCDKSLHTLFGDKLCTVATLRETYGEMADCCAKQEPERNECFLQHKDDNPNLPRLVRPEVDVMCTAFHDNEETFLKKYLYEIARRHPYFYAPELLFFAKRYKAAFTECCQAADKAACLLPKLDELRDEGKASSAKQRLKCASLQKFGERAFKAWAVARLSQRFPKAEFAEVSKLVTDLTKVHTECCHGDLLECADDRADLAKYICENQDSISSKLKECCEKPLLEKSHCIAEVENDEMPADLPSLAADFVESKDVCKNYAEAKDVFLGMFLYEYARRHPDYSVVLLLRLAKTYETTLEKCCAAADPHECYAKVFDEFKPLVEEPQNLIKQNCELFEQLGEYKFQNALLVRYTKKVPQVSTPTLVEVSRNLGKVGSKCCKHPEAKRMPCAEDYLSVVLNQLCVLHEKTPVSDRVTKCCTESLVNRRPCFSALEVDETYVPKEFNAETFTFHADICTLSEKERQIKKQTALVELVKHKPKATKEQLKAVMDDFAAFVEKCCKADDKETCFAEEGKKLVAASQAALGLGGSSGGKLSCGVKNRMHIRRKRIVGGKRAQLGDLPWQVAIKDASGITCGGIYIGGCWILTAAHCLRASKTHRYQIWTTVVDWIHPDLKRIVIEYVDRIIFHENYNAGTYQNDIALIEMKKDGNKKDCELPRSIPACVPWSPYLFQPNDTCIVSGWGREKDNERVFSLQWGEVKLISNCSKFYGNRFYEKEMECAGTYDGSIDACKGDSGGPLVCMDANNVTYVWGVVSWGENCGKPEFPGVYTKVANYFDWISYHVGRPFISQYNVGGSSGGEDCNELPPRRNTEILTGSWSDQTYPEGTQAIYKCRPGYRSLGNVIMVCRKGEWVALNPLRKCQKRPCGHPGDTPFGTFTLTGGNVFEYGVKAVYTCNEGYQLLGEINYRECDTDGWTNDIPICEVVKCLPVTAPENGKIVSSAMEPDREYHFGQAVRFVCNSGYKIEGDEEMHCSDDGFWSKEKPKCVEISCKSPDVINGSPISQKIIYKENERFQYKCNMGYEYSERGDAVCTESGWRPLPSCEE
WT; GGSSGG (SEQ ID NO: 6); CCP_1-4 (enzyme), sequence (chain): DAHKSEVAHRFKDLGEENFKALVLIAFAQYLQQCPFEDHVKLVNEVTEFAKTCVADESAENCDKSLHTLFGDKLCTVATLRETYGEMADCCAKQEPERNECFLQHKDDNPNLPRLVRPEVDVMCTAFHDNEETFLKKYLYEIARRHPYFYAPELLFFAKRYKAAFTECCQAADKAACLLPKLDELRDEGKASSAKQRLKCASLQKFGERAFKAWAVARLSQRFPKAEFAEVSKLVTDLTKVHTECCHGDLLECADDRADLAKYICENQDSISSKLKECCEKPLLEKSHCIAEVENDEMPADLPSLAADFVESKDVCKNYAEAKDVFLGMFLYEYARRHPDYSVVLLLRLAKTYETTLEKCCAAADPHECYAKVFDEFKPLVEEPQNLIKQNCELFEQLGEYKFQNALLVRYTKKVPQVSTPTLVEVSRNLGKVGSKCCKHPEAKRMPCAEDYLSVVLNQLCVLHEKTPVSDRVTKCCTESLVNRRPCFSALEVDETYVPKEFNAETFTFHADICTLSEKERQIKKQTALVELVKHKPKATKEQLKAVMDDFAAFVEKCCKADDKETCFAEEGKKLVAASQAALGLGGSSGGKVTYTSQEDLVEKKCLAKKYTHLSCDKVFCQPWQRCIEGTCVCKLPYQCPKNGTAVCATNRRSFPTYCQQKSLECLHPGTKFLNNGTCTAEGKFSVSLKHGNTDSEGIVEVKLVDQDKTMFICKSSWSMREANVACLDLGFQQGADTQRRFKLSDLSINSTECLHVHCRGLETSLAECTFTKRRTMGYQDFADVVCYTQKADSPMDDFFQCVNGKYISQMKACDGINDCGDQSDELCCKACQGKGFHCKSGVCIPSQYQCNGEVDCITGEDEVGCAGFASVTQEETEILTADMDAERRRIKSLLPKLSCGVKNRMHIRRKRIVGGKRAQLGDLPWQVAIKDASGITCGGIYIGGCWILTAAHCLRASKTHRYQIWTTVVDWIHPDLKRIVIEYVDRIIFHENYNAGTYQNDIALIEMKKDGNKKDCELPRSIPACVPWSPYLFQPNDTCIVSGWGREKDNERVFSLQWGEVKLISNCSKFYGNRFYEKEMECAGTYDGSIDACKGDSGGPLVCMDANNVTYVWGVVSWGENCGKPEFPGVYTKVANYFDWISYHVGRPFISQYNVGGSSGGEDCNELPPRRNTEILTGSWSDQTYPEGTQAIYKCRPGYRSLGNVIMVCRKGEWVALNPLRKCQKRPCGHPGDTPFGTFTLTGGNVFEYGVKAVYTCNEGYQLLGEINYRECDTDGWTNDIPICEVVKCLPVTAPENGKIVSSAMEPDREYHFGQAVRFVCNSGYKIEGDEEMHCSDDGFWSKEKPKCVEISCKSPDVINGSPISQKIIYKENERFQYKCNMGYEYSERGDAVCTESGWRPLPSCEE
Δ(K1-P305); GGSSGG (SEQ ID NO: 6); fH_CCP2-3 (enzyme), sequence (chain): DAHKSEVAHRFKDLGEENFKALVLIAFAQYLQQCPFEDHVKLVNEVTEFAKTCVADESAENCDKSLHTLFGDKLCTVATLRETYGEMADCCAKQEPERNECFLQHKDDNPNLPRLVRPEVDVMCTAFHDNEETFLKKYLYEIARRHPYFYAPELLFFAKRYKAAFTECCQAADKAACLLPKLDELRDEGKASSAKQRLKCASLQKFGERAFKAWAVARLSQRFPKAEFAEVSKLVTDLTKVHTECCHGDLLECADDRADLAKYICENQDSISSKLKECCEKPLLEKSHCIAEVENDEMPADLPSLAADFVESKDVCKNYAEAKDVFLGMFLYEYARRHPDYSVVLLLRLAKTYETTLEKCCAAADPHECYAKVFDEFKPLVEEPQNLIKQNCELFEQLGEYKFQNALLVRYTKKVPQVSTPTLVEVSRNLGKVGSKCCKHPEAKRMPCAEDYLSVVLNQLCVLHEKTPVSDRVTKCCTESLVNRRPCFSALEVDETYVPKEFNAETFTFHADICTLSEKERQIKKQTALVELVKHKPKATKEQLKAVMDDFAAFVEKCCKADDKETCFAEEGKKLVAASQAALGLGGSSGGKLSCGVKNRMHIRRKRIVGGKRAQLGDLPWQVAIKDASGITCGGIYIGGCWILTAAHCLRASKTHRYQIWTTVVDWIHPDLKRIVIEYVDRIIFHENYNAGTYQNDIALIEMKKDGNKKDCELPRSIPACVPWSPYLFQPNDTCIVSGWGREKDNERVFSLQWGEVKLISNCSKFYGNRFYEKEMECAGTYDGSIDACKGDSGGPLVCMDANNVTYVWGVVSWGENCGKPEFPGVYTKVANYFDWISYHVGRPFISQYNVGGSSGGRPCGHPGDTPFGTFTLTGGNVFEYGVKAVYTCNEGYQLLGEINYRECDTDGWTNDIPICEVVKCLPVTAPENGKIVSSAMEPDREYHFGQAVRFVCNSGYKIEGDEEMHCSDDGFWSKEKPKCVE

Substance | iC3b Screen Ref Fold (fold of CFI-HSA wild type) [2] | iC3b Screen Ref Fold (fold vs CFI-HSA wild type) [2] | C4b Screen Ref Fold (fold vs CFI-HSA wild type) [3] | other results
CFI-HSA D425E (enzyme) | 1.52 |  |  | C4b Screen Ref Fold (fold of CFI-HSA wild type) [1]: 1.75
CFI-HSA D425F (enzyme) | 1.91 |  |  | C4b Screen Ref Fold (fold of CFI-HSA wild type) [1]: 1.6
CFI-HSA D425H (enzyme) | 1.75 |  |  | C4b Screen Ref Fold (fold of CFI-HSA wild type) [1]: 1.79
CFI-HSA D425I (enzyme) | 1.86 |  |  | C4b Screen Ref Fold (fold of CFI-HSA wild type) [1]: 1.38
CFI-HSA D425L (enzyme) | 0.94 |  |  | C4b Screen Ref Fold (fold of CFI-HSA wild type) [1]: 1.46
CFI-HSA D425M (enzyme) | 0.91 |  |  | C4b Screen Ref Fold (fold of CFI-HSA wild type) [1]: 2.18
CFI-HSA D425N (enzyme) | 1.66 |  |  | C4b Screen Ref Fold (fold of CFI-HSA wild type) [1]: 1.54
CFI-HSA D425P (enzyme) | 0.72 |  |  | C4b Screen Ref Fold (fold of CFI-HSA wild type) [1]: 0.29
CFI-HSA D425Q (enzyme) | 1.87 |  |  | C4b Screen Ref Fold (fold of CFI-HSA wild type) [1]: 1.83
CFI-HSA D425S (enzyme) | 2.21 |  |  | C4b Screen Ref Fold (fold of CFI-HSA wild type) [1]: 1.13
CFI-HSA D425T (enzyme) | 2.16 |  |  | C4b Screen Ref Fold (fold of CFI-HSA wild type) [1]: 2.05
CFI-HSA D425V (enzyme) | 0.98 |  |  | C4b Screen Ref Fold (fold of CFI-HSA wild type) [1]: 2.51
CFI-HSA D425W (enzyme) | 1.59 |  |  | C4b Screen Ref Fold (fold of CFI-HSA wild type) [1]: 0.89
CFI-HSA D425Y (enzyme) | 1.15 |  |  | C4b Screen Ref Fold (fold of CFI-HSA wild type) [1]: 2.87
CFI-HSA variant Y408L; P535G; WT; GGSSGG (SEQ ID NO: 6); CR1(ccp15-17) (from UniProt P17927) (enzyme) | 0.03 |  |  | C4b Screen Ref Fold (fold of CFI-HSA wild type) [3]: 3.01
CFI-HSA variant Y408L; P558S (enzyme) | 0.86 |  |  | C4b Screen Ref Fold (fold of CFI-HSA wild type) [3]: 0.31
CFI-HSA variant Y408L; WT; GGSSGG (SEQ ID NO: 6); CR1(ccp15-17) (from UniProt P17927) (enzyme) | 0.03 |  |  | C4b Screen Ref Fold (fold of CFI-HSA wild type) [3]: 3.64
CFI-HSA variant Y408R (enzyme) |  | 0.24 | 0.07 | 
CFI-HSA variant Y553F (enzyme) | 0.67 |  |  | C4b Screen Ref Fold (fold of CFI-HSA wild type) [3]: 1.37
CFI-HSA variant Y553F; F559L (enzyme) | 0.35 |  |  | C4b Screen Ref Fold (fold of CFI-HSA wild type) [3]: 0.77
CFI-HSA variant Y553F; P558S (enzyme) | 0.84 |  |  | C4b Screen Ref Fold (fold of CFI-HSA wild type) [3]: 1.26
CFI-HSA variant Y553F; P558S; F559L (enzyme) | 0.5 |  |  | C4b Screen Ref Fold (fold of CFI-HSA wild type) [3]: 0.6
CFI-HSA variant Y553H; F559L (enzyme) | 0.32 |  |  | C4b Screen Ref Fold (fold of CFI-HSA wild type) [3]: 1.16
CFI-HSA variant Y553H; F559L; P558S (enzyme) | 0.22 |  |  | C4b Screen Ref Fold (fold of CFI-HSA wild type) [3]: 0.69

Substance | iC3b Screen Ref Fold (fold of CFI-HSA wild type) [2] | iC3b Screen Ref Fold (fold vs CFI-HSA wild type) [2] | C4b Screen Ref Fold (fold vs CFI-HSA wild type) [3] | other results
CFI-HSA variant Y553H; F559L; V565I (enzyme) | 0.76 |  |  | C4b Screen Ref Fold (fold of CFI-HSA wild type) [3]: 1.23
CFI-HSA variant Y553H; F559L; V565I; P558S (enzyme) | 0.59 |  |  | C4b Screen Ref Fold (fold of CFI-HSA wild type) [3]: 1.58
CFI-HSA variant Y553H; V565I (enzyme) | 1.32 |  |  | C4b Screen Ref Fold (fold of CFI-HSA wild type) [3]: 1.97
CFI-HSA variant Y553H; V565I; P558S (enzyme) | 0.46 |  |  | C4b Screen Ref Fold (fold of CFI-HSA wild type) [3]: 1.75
CFI-HSA variant Δ(K1-P305) (enzyme) |  | 0.04 | 0.06 | 
CFI-HSA variant Δ(K1-P305); 1317D-R318D-R319D-K320D-R321K (enzyme) |  | 0.03 | 0.06 | 
CFI-HSA variant Δ(K1-P305); N531G (enzyme) |  | 0.03 | 0.02 | 
CFI-HSA variant Δ(K1-P305); N531G; P535A (enzyme) |  | 0.05 | 0.15 | 
CFI-HSA variant Δ(K1-P305); Y408L; N531G (enzyme) |  | 0.05 | 0.14 | 
CFI-HSA variant Δ(K1-P305); Y408L; N531G; E457G; E461Q; R462K; F464Y (enzyme) |  | 0.03 | 0.01 | 
CFI-HSA variant Δ(S308) (enzyme) |  |  |  | iC3b Screen Ref Fold (fold relative to CFI-HSA wild type) [2]: -0.01; C4b Screen Ref Fold (fold relative to CFI-HSA wild type) [3]: 0.21
CFI-HSA variant Δ(V565) (enzyme) |  |  |  | iC3b Screen Ref Fold (fold relative to CFI-HSA wild type) [2]: 0.54; C4b Screen Ref Fold (fold relative to CFI-HSA wild type) [3]: 1.57
WT; GGSSGG (SEQ ID NO: 6); CCP_1-4 (enzyme) |  | 0.02 | 0.21 | 
WT; GGSSGG (SEQ ID NO: 6); CCP_1-4; GGSS(6) + G; compstatin (enzyme) |  | 0.11 | 0.25 | 
WT; GGSSGG (SEQ ID NO: 6); CCP_1-5; GGSS(3) + GGG; compstatin (enzyme) |  | 0.03 | 0.25 | 
WT; GGSSGG (SEQ ID NO: 6); CCP_2-4 (enzyme) |  | 0 | 0.38 | 
fH_CCP1-4; GGGGSS(7); wt hCFI (enzyme) |  | 0.77 | 1.21 | 
fH_CCP1-4; GGGGSS(9); wt hCFI (enzyme) |  | 0.66 | 0.97 | 
fH_CCP1-4; GGSS(11); wt hCFI (enzyme) |  | 0.69 | 1.49 | 
fH_CCP1-4; GGSS(13); wt hCFI (enzyme) |  | 0.6 | 1.63 | 
Δ(K1-P305); GGSSGG (SEQ ID NO: 6); fH_CCP1-4 (enzyme) |  | 0.04 | 0.15 | 
Δ(K1-P305); GGSSGG (SEQ ID NO: 6); fH_CCP2-3 (enzyme) |  | 0.01 | 0.05 | 
Δ(K1-P305); GGSSGG (SEQ ID NO: 6); fH_CCP2-4 (enzyme) |  | 0.03 | 0.06 | 
